Experimental data as given in paper PMC2849744.

Biological target: ANF-RGC 669WTAPELL675 deletion mutant (UniProt P18910)
Assay: radioligand binding

Chain of UniProt P18910 (P18910 29-1057, stated change not applied): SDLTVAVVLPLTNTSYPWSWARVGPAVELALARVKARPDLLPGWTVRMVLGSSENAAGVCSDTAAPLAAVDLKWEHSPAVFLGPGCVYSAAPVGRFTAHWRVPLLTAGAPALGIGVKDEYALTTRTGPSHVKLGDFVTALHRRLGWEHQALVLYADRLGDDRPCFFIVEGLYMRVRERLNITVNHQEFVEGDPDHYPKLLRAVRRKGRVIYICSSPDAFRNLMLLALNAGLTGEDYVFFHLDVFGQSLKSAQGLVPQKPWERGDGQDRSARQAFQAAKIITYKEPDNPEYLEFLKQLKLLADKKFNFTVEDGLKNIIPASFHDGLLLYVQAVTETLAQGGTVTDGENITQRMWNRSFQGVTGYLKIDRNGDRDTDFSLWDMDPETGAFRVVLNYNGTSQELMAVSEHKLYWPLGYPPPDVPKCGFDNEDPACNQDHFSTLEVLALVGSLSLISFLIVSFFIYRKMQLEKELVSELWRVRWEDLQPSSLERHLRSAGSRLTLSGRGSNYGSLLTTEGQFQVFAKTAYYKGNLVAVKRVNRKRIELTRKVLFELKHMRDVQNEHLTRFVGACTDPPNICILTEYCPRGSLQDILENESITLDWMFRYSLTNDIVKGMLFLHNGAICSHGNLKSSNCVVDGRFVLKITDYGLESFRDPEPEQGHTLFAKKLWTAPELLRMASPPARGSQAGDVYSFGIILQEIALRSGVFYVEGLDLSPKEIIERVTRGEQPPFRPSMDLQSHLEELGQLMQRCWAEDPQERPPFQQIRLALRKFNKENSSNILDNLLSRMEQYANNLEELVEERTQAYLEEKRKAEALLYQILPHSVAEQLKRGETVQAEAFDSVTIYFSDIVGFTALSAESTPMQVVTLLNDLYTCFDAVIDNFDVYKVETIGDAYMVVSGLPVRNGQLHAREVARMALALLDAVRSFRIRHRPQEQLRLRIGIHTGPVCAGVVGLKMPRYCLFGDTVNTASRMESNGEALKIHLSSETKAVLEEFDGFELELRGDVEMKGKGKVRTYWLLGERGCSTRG

atrial natriuretic factor (ANF) (peptide)
specific binding (pmol [125I]ANF/mg protein): 10.1
